Source: PMC10897327

Key:
Experiment in all cases: native gel or EMSA; NativePAGE 3-12% Bis-Tris gel with Coomassie G-250, immunoblot for 52K; purified MBP-52K fusion proteins with or without TEV protease cleavage for 1 h at room temperature
[1] = target: MBP-52K fusion protein, S28/75A (MBP tag not removed) (human adenovirus type C5 (Ad5))
[2] = target: MBP-52K fusion protein, S28/75D (MBP tag not removed) (human adenovirus type C5 (Ad5))
[3] = target: recombinant 52K S28/75D released from MBP-52K by TEV protease (human adenovirus type C5 (Ad5))
[4] = target: MBP-52K fusion protein, wild type (MBP tag not removed) (human adenovirus type C5 (Ad5))
[5] = target: recombinant WT 52K released from MBP-52K by TEV protease (human adenovirus type C5 (Ad5))
[6] = target: recombinant 52K S28/75A released from MBP-52K by TEV protease (human adenovirus type C5 (Ad5))

“MBP-52K fusion protein, S28/75A (MBP tag not removed) (natural protein)” showed a stoichiometry N [1] of 2.
In the case of “MBP-52K fusion protein, S28/75D (MBP tag not removed) (natural protein)”, the stoichiometry N [2] is reported as 2.
“recombinant 52K S28/75D released from MBP-52K by TEV protease (natural protein)” gave a stoichiometry N [3] of 2.
Substance “MBP-52K fusion protein, wild type (MBP tag not removed) (natural protein)” has a stoichiometry N [4] of 2.
Substance “recombinant WT 52K released from MBP-52K by TEV protease (natural protein)” has a stoichiometry N [5] of 2.
“recombinant 52K S28/75A released from MBP-52K by TEV protease (natural protein)” showed a stoichiometry N [6] of 2.
